Earlier results as cited in PMC11182772.

Molecular target: Scc1-SA2 (Homo sapiens) (UniProt O60216)
Sequence (O60216 whole entry, chain 1 of 2): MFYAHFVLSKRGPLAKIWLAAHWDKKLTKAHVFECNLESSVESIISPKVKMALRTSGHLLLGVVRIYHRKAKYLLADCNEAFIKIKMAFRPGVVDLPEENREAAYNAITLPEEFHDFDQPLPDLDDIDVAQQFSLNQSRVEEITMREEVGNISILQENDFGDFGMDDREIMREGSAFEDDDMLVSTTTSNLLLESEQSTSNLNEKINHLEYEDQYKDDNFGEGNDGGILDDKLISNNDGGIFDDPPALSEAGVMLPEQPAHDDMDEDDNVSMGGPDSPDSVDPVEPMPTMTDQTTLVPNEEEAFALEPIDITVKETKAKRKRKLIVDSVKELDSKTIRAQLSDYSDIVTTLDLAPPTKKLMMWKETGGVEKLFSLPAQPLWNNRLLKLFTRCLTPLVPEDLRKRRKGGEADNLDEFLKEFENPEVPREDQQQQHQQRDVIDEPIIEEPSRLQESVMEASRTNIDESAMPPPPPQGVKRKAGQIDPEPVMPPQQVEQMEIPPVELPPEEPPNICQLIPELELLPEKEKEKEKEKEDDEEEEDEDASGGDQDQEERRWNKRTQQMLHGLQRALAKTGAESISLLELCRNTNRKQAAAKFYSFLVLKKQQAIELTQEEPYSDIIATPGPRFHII
Sequence (Q8N3U4 whole entry, chain 2 of 2, further chain): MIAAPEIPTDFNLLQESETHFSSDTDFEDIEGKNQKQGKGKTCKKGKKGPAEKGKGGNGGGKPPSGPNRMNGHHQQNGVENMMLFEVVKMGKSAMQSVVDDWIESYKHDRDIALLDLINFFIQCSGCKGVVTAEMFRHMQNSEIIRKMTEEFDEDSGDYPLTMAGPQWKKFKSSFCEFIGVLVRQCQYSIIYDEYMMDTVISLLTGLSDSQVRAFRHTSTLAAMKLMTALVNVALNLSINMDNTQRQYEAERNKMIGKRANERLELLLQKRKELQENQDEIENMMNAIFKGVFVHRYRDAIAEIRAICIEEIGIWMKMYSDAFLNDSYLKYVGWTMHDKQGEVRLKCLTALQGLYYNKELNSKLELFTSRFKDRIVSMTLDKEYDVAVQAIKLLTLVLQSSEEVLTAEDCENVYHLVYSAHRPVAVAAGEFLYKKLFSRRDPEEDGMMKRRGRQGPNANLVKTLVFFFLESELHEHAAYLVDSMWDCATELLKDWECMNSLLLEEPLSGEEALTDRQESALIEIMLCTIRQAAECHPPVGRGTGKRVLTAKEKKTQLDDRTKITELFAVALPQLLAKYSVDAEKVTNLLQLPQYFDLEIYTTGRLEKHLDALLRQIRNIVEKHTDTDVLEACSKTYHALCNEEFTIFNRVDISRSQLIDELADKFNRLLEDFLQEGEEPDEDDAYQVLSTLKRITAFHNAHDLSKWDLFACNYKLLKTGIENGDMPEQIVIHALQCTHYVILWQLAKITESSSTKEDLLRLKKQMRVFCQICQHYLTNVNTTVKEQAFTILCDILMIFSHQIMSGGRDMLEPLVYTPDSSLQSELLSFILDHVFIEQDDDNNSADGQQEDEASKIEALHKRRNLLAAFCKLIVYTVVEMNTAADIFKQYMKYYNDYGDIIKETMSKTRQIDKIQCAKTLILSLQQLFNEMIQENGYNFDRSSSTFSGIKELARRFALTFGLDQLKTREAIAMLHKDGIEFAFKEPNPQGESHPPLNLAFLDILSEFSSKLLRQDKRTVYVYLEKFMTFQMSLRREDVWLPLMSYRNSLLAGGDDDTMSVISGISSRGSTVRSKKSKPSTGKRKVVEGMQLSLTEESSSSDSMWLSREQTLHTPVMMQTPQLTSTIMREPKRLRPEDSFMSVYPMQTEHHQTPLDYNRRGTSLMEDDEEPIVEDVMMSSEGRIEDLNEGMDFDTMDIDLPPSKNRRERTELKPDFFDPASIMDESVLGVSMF

## CENP-U DVFDF motif peptide (from UniProt Q71F23)
  Kd: 4 µM
